Earlier results on six substances are cited in paper PMC4339652.

Series [1] addresses TolB (Escherichia coli) (UniProt P0A855). The experiment in a line: ITC.
Series [2] addresses Colicin N T domain (Escherichia coli) (UniProt P08083).
For series [3], the target named is G3p N1 (Filamentous phage) (UniProt O80297).
The target of series [4] is TolB (Escherichia coli) (UniProt P0A855). Briefly: ITC. This is another data set of the same source. (In general: Isothermal titration calorimetry measures the heat released or taken up as one component is titrated into another.)
TolB (Escherichia coli), sequence (P0A855 22-430): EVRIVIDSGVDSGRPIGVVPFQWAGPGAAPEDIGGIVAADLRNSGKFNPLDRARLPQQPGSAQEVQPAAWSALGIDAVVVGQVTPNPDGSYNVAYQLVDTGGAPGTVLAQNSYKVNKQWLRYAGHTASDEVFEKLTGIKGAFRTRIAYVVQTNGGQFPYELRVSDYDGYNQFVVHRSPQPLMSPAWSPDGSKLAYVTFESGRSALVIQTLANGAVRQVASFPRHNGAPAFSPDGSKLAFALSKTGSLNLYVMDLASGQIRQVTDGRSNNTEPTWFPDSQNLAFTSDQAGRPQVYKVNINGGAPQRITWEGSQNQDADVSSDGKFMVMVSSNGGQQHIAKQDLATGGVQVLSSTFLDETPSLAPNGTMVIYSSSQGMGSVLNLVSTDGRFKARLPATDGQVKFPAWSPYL
Series [5] has as its target TolA TolAIII (Escherichia coli) (UniProt P19934). Briefly: SPR. (In general: In SPR one partner is held on a chip, and binding of the other changes the refractive index at the surface.)
Series [6] shares this target. The experiment in a line: stopped flow fluorescence.
The target is the same in series [7]. Briefly: ITC.
For series [8], the target named is Colicin N 40-90 (Escherichia coli) (UniProt P08083). Briefly: SPR.
Colicin N 40-90 (Escherichia coli), sequence (P08083 40-90): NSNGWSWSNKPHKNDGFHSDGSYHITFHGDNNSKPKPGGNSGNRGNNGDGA
Series [9] has as its target TolA TolAII-III (Escherichia coli) (UniProt P19934). Briefly: SPR.

“And” between values parts separate entries of the source, which are not always exact repeats. Equal values may be shown once. Read-outs that look alike come from different tables or passages of the source.

Colicin N 40-90, sequence (P08083 40-90): as above
TolA TolAII-III, sequence (P19934 48-421): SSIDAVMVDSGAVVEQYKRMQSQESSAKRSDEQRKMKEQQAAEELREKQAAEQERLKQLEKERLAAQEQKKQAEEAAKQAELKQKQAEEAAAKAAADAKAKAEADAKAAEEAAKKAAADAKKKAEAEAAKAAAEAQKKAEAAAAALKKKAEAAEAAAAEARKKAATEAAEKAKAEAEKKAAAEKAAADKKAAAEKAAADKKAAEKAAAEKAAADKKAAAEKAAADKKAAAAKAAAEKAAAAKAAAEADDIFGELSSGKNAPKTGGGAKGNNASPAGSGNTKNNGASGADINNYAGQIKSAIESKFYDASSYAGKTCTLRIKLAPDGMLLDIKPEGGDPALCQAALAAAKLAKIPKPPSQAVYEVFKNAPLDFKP
Colicin N T domain (1-90), sequence (P08083 1-90): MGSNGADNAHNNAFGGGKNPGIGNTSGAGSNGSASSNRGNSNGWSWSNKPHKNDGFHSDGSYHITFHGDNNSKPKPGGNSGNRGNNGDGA
TolA TolAIII, sequence (P19934 311-421): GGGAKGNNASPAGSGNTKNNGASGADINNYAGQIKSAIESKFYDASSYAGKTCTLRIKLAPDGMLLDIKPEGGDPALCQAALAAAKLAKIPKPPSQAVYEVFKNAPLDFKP
TolA TolAIII (Escherichia coli), sequence (P19934 311-421): as above
TolA TolA, sequence (P19934 whole entry): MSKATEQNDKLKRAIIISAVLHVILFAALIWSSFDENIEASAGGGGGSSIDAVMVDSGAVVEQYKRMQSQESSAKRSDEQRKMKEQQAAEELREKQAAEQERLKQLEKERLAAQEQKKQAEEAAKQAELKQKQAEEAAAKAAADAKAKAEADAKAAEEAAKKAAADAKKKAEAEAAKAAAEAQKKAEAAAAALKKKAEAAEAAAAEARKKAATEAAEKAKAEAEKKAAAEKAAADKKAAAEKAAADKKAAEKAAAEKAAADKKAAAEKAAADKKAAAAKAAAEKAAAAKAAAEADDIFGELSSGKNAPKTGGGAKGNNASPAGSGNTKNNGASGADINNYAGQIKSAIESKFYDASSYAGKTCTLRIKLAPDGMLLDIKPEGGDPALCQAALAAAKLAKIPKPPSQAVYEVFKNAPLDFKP
TolA TolAII-III (Escherichia coli), sequence (P19934 48-421): as the sequence (P19934 48-421) above
Colicin N T domain (Escherichia coli), sequence (P08083 1-90): as the sequence (P08083 1-90) above
G3p N1 domain, sequence (P69168 16-88): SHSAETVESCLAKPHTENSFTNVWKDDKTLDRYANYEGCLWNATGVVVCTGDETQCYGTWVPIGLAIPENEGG
G3p N1 (Filamentous phage), sequence (O80297 18-79): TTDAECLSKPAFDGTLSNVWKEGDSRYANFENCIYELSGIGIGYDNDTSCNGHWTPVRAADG

Take TolA TolAIII (from UniProt P19934): the Kd – broadly, the equilibrium constant for the complex coming apart – in series [1] was 13000 nM; in series [2], 1000 nM; in series [3] it was 1000 nM; in series [4], 40000 nM.
On to G3p N1 domain (from UniProt P69168), for which the dissociation constant Kd in series [5] is 1000 nM.
In the case of “Colicin N T domain (1-90) (from UniProt P08083)”, the dissociation constant (Kd) in series [6] is 2300 nM; in [7] it was 1000 nM; in series [5], 1250 nM.
For TolA TolAII-III (from UniProt P19934), in [8], the Kd was 190 nM and 940 nM and 850 nM.
Regarding TolA TolA (from UniProt P19934), in [1], the Kd is 40000 nM.
On to Colicin N 40-90 (from UniProt P08083), for which the Kd in [9] is 940 nM; in series [5] it was 850 nM and 190 nM.
